{"source": "paper PMC11602973", "about": "“Structural basis of nucleic acid recognition by the N-terminal cold shock domain of the plant glycine-rich protein AtGRP2”", "key": {"AtGRP2-CSD1-90 WT [1]": {"target": "T1, AtGRP2-CSD1-90 WT (Arabidopsis thaliana, UniProt Q41188 1-90)", "T1 sequence": "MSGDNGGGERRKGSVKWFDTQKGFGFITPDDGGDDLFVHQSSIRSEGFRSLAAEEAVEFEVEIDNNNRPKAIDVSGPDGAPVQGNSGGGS", "assay": "fluorescence anisotropy; 20 mM sodium phosphate pH 6.5, 50 mM NaCl, 25 C (fluorescence); NMR titrations in the same buffer plus 250 uM PMSF, 3 mM NaN3, 5% D2O, 298 K", "conditions": "protein: recombinant; tags: N-terminal Trx(6 aa)-His6-TEV tag, cleaved; label: 5'-rhodamine"}, "AtGRP2-CSD1-79": {"target": "T2, AtGRP2-CSD1-79 (Arabidopsis thaliana, UniProt Q41188 1-79)", "T2 sequence": "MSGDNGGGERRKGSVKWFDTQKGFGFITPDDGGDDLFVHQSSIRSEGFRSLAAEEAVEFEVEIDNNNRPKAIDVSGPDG", "assay": "intrinsic Trp fluorescence quenching; 20 mM sodium phosphate pH 6.5, 50 mM NaCl, 25 C (fluorescence); NMR titrations in the same buffer plus 250 uM PMSF, 3 mM NaN3, 5% D2O, 298 K", "conditions": "protein: recombinant; tags: N-terminal Trx(6 aa)-His6-TEV tag, cleaved"}, "AtGRP2-CSD1-90 WT [2]": {"target": "T1, AtGRP2-CSD1-90 WT", "assay": "NMR HSQC titration; up to 2x molar excess; 20 mM sodium phosphate pH 6.5, 50 mM NaCl, 25 C (fluorescence); NMR titrations in the same buffer plus 250 uM PMSF, 3 mM NaN3, 5% D2O, 298 K", "conditions": "protein: recombinant; tags: N-terminal Trx(6 aa)-His6-TEV tag, cleaved"}, "AtGRP2-CSD1-90 F48A": {"target": "T3, AtGRP2-CSD1-90 F48A (Arabidopsis thaliana, UniProt Q41188 1-90, F48A)", "T3 sequence": "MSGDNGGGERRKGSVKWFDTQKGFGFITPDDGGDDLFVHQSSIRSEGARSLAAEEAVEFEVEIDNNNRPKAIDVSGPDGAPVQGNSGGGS", "assay": "fluorescence anisotropy; 20 mM sodium phosphate pH 6.5, 50 mM NaCl, 25 C (fluorescence); NMR titrations in the same buffer plus 250 uM PMSF, 3 mM NaN3, 5% D2O, 298 K", "conditions": "protein: recombinant; tags: N-terminal Trx(6 aa)-His6-TEV tag, cleaved; label: 5'-rhodamine"}, "AtGRP2-CSD1-90 H39A": {"target": "T4, AtGRP2-CSD1-90 H39A (Arabidopsis thaliana, UniProt Q41188 1-90, H39A)", "T4 sequence": "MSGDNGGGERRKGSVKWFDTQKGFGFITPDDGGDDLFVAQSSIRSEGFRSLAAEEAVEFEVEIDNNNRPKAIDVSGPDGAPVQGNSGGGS", "assay": "fluorescence anisotropy; 20 mM sodium phosphate pH 6.5, 50 mM NaCl, 25 C (fluorescence); NMR titrations in the same buffer plus 250 uM PMSF, 3 mM NaN3, 5% D2O, 298 K", "conditions": "protein: recombinant; tags: N-terminal Trx(6 aa)-His6-TEV tag, cleaved; label: 5'-rhodamine"}, "AtGRP2-CSD1-90 R49A": {"target": "T5, AtGRP2-CSD1-90 R49A (Arabidopsis thaliana, UniProt Q41188 1-90, R49A)", "T5 sequence": "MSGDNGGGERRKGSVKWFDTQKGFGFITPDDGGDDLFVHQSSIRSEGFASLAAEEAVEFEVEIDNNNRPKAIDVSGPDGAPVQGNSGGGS", "assay": "fluorescence anisotropy; 20 mM sodium phosphate pH 6.5, 50 mM NaCl, 25 C (fluorescence); NMR titrations in the same buffer plus 250 uM PMSF, 3 mM NaN3, 5% D2O, 298 K", "conditions": "protein: recombinant; tags: N-terminal Trx(6 aa)-His6-TEV tag, cleaved; label: 5'-rhodamine"}, "AtGRP2-CSD1-90 F37A": {"target": "T6, AtGRP2-CSD1-90 F37A (Arabidopsis thaliana, UniProt Q41188 1-90, F37A)", "T6 sequence": "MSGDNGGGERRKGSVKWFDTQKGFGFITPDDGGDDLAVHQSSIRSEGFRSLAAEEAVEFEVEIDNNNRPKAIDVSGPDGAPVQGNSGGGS", "assay": "fluorescence anisotropy; no saturation; text: binding abolished; 20 mM sodium phosphate pH 6.5, 50 mM NaCl, 25 C (fluorescence); NMR titrations in the same buffer plus 250 uM PMSF, 3 mM NaN3, 5% D2O, 298 K", "conditions": "protein: recombinant; tags: N-terminal Trx(6 aa)-His6-TEV tag, cleaved; label: 5'-rhodamine"}, "AtGRP2-CSD1-90 W17A": {"target": "T7, AtGRP2-CSD1-90 W17A (Arabidopsis thaliana, UniProt Q41188 1-90, W17A)", "T7 sequence": "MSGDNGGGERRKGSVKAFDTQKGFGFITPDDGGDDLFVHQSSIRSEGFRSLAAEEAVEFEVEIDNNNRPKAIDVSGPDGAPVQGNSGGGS", "assay": "fluorescence anisotropy; no saturation; text: binding abolished; 20 mM sodium phosphate pH 6.5, 50 mM NaCl, 25 C (fluorescence); NMR titrations in the same buffer plus 250 uM PMSF, 3 mM NaN3, 5% D2O, 298 K", "conditions": "protein: recombinant; tags: N-terminal Trx(6 aa)-His6-TEV tag, cleaved; label: 5'-rhodamine"}, "AtGRP2-CSD1-90 F26A": {"target": "T8, AtGRP2-CSD1-90 F26A (Arabidopsis thaliana, UniProt Q41188 1-90, F26A)", "T8 sequence": "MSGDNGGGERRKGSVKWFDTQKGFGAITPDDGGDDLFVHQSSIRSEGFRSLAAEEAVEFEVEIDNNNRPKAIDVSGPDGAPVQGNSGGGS", "assay": "fluorescence anisotropy; no saturation; text: binding abolished; 20 mM sodium phosphate pH 6.5, 50 mM NaCl, 25 C (fluorescence); NMR titrations in the same buffer plus 250 uM PMSF, 3 mM NaN3, 5% D2O, 298 K", "conditions": "protein: recombinant; tags: N-terminal Trx(6 aa)-His6-TEV tag, cleaved; label: 5'-rhodamine"}}}
{"binder": "UUUUUUU (ssRNA)", "note": "[Rho-U7]", "values": [{"measurement": "Kd", "setting": "AtGRP2-CSD1-90 WT [1]", "result": "76.8 ± 9.7", "unit": "µM"}]}
{"binder": "TTTTTTT (ssDNA)", "note": "[T7]", "values": [{"measurement": "Kd", "setting": "AtGRP2-CSD1-79", "result": "22 ± 2.4", "unit": "µM"}]}
{"binder": "AAAAAAA (ssDNA)", "note": "[A7]", "values": [{"measurement": "binding result", "setting": "AtGRP2-CSD1-90 WT [2]", "result": "no binding"}]}
{"binder": "TTTTTTT (ssDNA)", "note": "[Rho-T7]", "values": [{"measurement": "Kd", "setting": "AtGRP2-CSD1-90 F48A", "result": "38.6 ± 6.3", "unit": "µM"}, {"measurement": "Kd", "setting": "AtGRP2-CSD1-90 H39A", "result": "210 ± 36.8", "unit": "µM"}, {"measurement": "Kd", "setting": "AtGRP2-CSD1-90 R49A", "result": "45.7 ± 6.8", "unit": "µM"}, {"measurement": "Kd", "setting": "AtGRP2-CSD1-90 WT [1]", "result": "17.2 ± 2.4", "unit": "µM"}, {"measurement": "binding result", "setting": "AtGRP2-CSD1-90 F37A", "result": "no binding"}, {"measurement": "binding result", "setting": "AtGRP2-CSD1-90 W17A", "result": "no binding"}, {"measurement": "binding result", "setting": "AtGRP2-CSD1-90 F26A", "result": "no binding"}]}
{"binder": "GGGGGGG (ssDNA)", "note": "[G7]", "values": [{"measurement": "binding result", "setting": "AtGRP2-CSD1-90 WT [2]", "result": "no binding"}]}
